# Article PMC7022936
# pKd: −log10 of the molar value.
# System: DcGliZ full-length (Dichotomomyces cejpii FS110)
# Experiment: SPR
# Settings: SPR: HBS-EP (10 mM HEPES pH 7.4, 150 mM NaCl, 0.005% P20), 22 C; EMSA: Beyotime chemiluminescent kit, 5 uL of 1 uM probe + 2 uL protein (~1 mg/mL in Methods …)
row,Sequence,pKd
1,GTTTCTATGTCTATATCGGAGGAGTGATCAACGGCGTCCGAAAATTCGGCCCGCGGCTGTCTTAGGGCTGGCCTGCAGGTGTAGGGTTCATTATGAAAGACTGGTAGTATTATGCTGCTATTTAGTCAAAAGCAGAAGAACAGTTTGTCTTTAGACCTTGAATAGATATCTGTCAAGACAAGAGCCAAGAAAGTCCCATCACCATGGCAGACATGACCGAACGACCTTCTGATCTCGTTGTGGACAGGCTGGTTCTCTTCG (double strand) [pG (gliG promoter)],6.80
2,TAGTCTATCACTGAACAGTTGAATGAATTTGTTTCAAGACAGCTAAAGCTCCATTCTAGCCGTACGTACTGGTAGTTCTCCGCATAGAAACATATATCTCTCTGCTTGGTCAAAGTCAGGTATCGCCGACAAGTCTTAATATCTGCAGAGTATTCGGTGACCGAAATAGGGTCGGAATATAAGCCATATATATCACTGTTCTGGAAATCAAGAAAATATAACAGTTGAATACTCACTTTTCTAACATTCCAACAATCAGTTGAGCTCGATCACA (double strand) [pM (gliM promoter)],6.79
3,TTACTTCTTGGTCTACTCCGTATTGTGAATCGAAATGAGATAGAAGTATAGTTCTACTGTACTGGTTTCTATCTGCTTAAAATAAATACAATTGTGCCTTCTATACAGATCAGTATGTAGAATGAACTGATAGACCTCCAGGAGGTTCTTCCTCCGAGCCTGCAACGCCCAAGAGGAGAACTGTGCATACGCCAGGACAGATTTTCGGCCTCCGAAAAGGACTGAGGATAGTATCTGCCATGTTTATATATAACTGAGGGAATAGACCAGGTAGATAACAGCAAAATCAACTAAACATCATC (double strand) [pN (gliN promoter)],6.98
